Results taken from paper PMC9131392 (Biomacromolecules, 2021).
Several values for one entry are separate records, joined by “and”; a condition that tells them apart may be missing. Identical values can stand only once. Like-named read-outs stand apart in the source and are kept apart here.

Key:
SEC-SAXS [1] = biological target: the molecule itself; assay: SEC-SAXS
SEC-SAXS [2] = biological target: the molecule itself; assay: SEC-SAXS; remark: listed apart in the source

B1: C-phycocyanin (αβ) monomer from Spirulina platensis (complex)
chain 1: not shown
chain 2: MFDAFTKVVSQADTRGEMLSTAQIDALSQMVAESNKRLDAVNRITSNASTIVSNAARSLFAEQPQLIAPGGNAYTSRRMAACLRDMEIILRYVTYAVFAGDASVLEDRCLNGLRETYLALGTPGSSVAVGVGKMKEAALAIVNDPAGITPGDCSALASEIASYFDRACAAVS
modifications: open-chain tetrapyrrole chromophore cofactors attached covalently | open-chain tetrapyrrole chromophore cofactors attached covalently
stoichiometry N (SEC-SAXS [1]): 3 | stoichiometry N (SEC-SAXS [2]): 12 and 24
